This note sets out measurements from patent publication US20100119588A1.

Like-named read-outs stand apart in the source and are kept apart here.

Test [1] addresses hemagglutinin H1 on influenza virus A/Puerto Rico/8/34 strain (H1N1) (influenza virus A/Puerto Rico/8/34 (H1N1)) (UniProt P03452). Nature of the test: cell-based or functional assay.
For test [2] the target is unchanged. The test is described as follows: cell-based or functional assay. This is another data set of the same source.

Regarding C18-s2(1-2) (C18-AR peptide amide), the IC50(µM), plaque assay, infection of MDCK cells in test [1] was over 100 µM.
Same read-out and setting: to C18-s2(1-3) (C18-ARL peptide amide) belongs over 100 µM; to C18-s2(1-4) (C18-ARLP peptide amide), 0.9 µM.
As for C18-s2(1-5) (C18-ARLPR peptide amide), the IC50(µM), plaque assay, infection of MDCK cells came out at 3.1 µM in test [1] and 0.35 µM in test [2].
On to C18-s2(1-6) (C18-ARLPRT peptide amide), for which, in test [1], the IC50(µM), plaque assay, infection of MDCK cells is 3.5 µM.
Still for that read-out and setting: to C18-s2(1-7) (C18-ARLPRTM peptide amide) belongs 7.1 µM.
In test [2], “C18-s2(1-8) (C18-ARLPRTMV peptide amide)” registered an IC50(µM), plaque assay, infection of MDCK cells of 2.4 µM.
Turning to C18-s2(2-8) (C18-RLPRTMV peptide amide), the IC50(µM), plaque assay, infection of MDCK cells in test [1] is 9.2 µM.
The same measure, in the same setting: to C18-s2(3-8) (C18-LPRTMV peptide amide) belongs over 100 µM.
C18-s2(4-8) (C18-PRTMV peptide amide) showed an IC50(µM), plaque assay, infection of MDCK cells in test [1] of over 100 µM.
With “C18-s2(5-11) (C18-RTMVHPK peptide amide)”, the IC50(µM), plaque assay, infection of MDCK cells in test [1] stood at 11 µM.
On the same count and under the same terms, to “C18-s2(8-15) (C18-VHPKPAQP peptide amide)” belongs 59 µM.
As to C18-s2(r1-4) (C18-PLRA peptide amide), the IC50(µM), plaque assay, infection of MDCK cells in test [2] came to 0.41 µM.
Still for that read-out and setting: to C18-s2(r1-5) (C18-RPLRA peptide amide) belongs 0.55 µM.
Consider “C18-s2(r1-8) (C18-VMTRPLRA peptide amide)”, for which the IC50(µM), plaque assay, infection of MDCK cells in test [1] is 93 µM.
